Where no end group is shown, it is not given here.

Series [1] has as its target p7 protein from the Hepatitis C virus (HCV) (Hepatitis C virus) (UniProt O39928). The series is described as follows: cross-linking.
The series “cross-linking” deals with the molecule itself. The series is described as follows: cross-linking.
Series [2] addresses transmembrane domain of Fas (Fas-TMD). The series can be described thus: SDS-PAGE.

For “p7 protein from the Hepatitis C virus (HCV) (from UniProt O39928 748-810) (natural protein)”, the stoichiometry N in series [1] was 6.

B1: Fas-TMD with a C-terminal His6-tag (domain or fragment)
chain: RSNLGWLCLLLLPIPLIVWVKRKEVQKT-His6
modifications: also: primary amines blocked with Sulfo-NHS Acetate
Consider B1, for which, in the series “cross-linking”, the “stoichiometry N” value stood at 3.

B2: transmembrane domain of Fas (Fas-TMD) (domain or fragment)
chain: RSNLGWLCLLLLPIPLIVWVKRKEVQKT
modifications: not checked
In series [2], B2 registered a stoichiometry N of 3.

The record behind these values is article PMC7238434 (Nature protocols, 2019).
